From PMC4117778 come the findings set out here.

In the series the target is human DNA polymerase beta (polβ) (Homo sapiens, UniProt P06746 1-335). The series can be described thus: X-ray crystallography; gapped binary complex, no incoming nucleotide; open conformation; 2.4 Å; Crystallization conditions not in material; kinetics (turnover only, not listed): 50 mM Tris-HCl pH 7.5, 5 mM MgCl2, 100 mM KCl, 80 nM DNA, 37°C.

B1: single-nucleotide gapped DNA with templating Fm7dG (crystal) (dsDNA)
DNA 1: CCGACGTCGCATCAGC
DNA 2: GCTGATGCGA
DNA 3: GTCGG
modifications: template G6 = 2'-fluoro-N7-methyl-2'-deoxyguanosine (Fm7dG); 5'-phosphate on downstream primer GTCGG
For the molecule B1, the binding result was “binds”.
